Sequences and labels used below:
B1: phosphorylase kinase β subunit (natural protein, rabbit (endogenous in skeletal muscle), UniProt P12798 1-1093, looked up)
chain: MAGATGLMAEVSWKVLERRARTKRSGSVYEPLKSINLPRPDNETLWDKLDYYYKIVKSTLLLYQSPTTGLFPTKTCGGDQTAKIHDSLYCAAGAWALALAYRRIDDDKGRTHELEHSAIKCMRGILYCYMRQADKVQQFKQDPRPTTCLHSLFNVHTGDELLSYEEYGHLQINAVSLYLLYLVEMISSGLQIIYNTDEVSFIQNLVFCVERVYRVPDFGVWERGSKYNNGSTELHSSSVGLAKAALEAINGFNLFGNQGCSWSVIFVDLDAHNRNRQTLCSLLPRESRSHNTDAALLPCISYPAFALDDDVLYNQTLDKVIRKLKGKYGFKRFLRDGYRTSLEDPKRRYYKPAEIKLFDGIECEFPIFFLYMMIDGVFRGNPKQVKEYQDLLTPVLHQTTEGYPVVPKYYYVPADFVEYEKRNPGSQKRFPSNCGRDGKLFLWGQALYIIAKLLADELISPKDIDPVQRYVPLQNQRNVSMRYSNQGPLENDLVVHVALVAESQRLQVFLNTYGIQTQTPQQVEPIQIWPQQELVKAYFHLGINEKLGLSGRPDRPIGCLGTSKIYRILGKTVVCYPIIFDLSDFYMSQDVLLLIDDIKNALQFIKQYWKMHGRPLFLVLIREDNIRGSRFNPMLDMLAALKNGMIGGVKVHVDRLQTLISGAVVEQLDFLRISDTEELPEFKSFEELEPPKHSKVKRQSSTSNAPELEQQPEVSVTEWRNKPTHEILQKLNDCSCLASQTILLGILLKREGPNFITQEGTVSDHIERLYRRAGSKKLWLAVRYGAAFTQKFSSSIAPHITTFLVHGKQVTLGAFGHEEEVISNPLSPRVIKNIIYYKCNTHDEREAVIQQELVIHIGWIISNNPELFSGMLKIRIGWIIHAMEYELQIRSGDKPAKDLYQLSPSEVKQLLLDILQPQQNGRCWLNKRQIDGSLNRTPTGFYDRVWQILERTPNGIIVAGKHLPQQPTLSDMTMYEMNFSLLVEDMLGNIDQPKYRQIVVELLMVVSIVLERNPELEFQDKVDLDKLVKEAFHEFQKDESRLKEIEKQDDMTSFYNTPPLGKRGTCSYLTKVVMNLLLEGEVKPSNEDSCLVS
notes: phosphorylase kinase β subunit, regulatory; printed as 125 kDa, 1092 amino acids; source: purified from rabbit fast-twitch skeletal muscle as part of the PhK holoenzyme

Settings in all cases: both partners purified
Experiment [1] deals with T1, phosphorylase kinase α subunit (rabbit (endogenous in skeletal muscle), UniProt P18688 1-1237).
T1 construct: phosphorylase kinase α subunit, regulatory, skeletal muscle; printed as 138 kDa, 1237 amino acids; In the aged preparation used for Superdex 200 gel filtration the α subunit may have been partly proteolysed; source: purified from rabbit fast-twitch skeletal muscle as part of the PhK holoenzyme
T1 sequence (looked up): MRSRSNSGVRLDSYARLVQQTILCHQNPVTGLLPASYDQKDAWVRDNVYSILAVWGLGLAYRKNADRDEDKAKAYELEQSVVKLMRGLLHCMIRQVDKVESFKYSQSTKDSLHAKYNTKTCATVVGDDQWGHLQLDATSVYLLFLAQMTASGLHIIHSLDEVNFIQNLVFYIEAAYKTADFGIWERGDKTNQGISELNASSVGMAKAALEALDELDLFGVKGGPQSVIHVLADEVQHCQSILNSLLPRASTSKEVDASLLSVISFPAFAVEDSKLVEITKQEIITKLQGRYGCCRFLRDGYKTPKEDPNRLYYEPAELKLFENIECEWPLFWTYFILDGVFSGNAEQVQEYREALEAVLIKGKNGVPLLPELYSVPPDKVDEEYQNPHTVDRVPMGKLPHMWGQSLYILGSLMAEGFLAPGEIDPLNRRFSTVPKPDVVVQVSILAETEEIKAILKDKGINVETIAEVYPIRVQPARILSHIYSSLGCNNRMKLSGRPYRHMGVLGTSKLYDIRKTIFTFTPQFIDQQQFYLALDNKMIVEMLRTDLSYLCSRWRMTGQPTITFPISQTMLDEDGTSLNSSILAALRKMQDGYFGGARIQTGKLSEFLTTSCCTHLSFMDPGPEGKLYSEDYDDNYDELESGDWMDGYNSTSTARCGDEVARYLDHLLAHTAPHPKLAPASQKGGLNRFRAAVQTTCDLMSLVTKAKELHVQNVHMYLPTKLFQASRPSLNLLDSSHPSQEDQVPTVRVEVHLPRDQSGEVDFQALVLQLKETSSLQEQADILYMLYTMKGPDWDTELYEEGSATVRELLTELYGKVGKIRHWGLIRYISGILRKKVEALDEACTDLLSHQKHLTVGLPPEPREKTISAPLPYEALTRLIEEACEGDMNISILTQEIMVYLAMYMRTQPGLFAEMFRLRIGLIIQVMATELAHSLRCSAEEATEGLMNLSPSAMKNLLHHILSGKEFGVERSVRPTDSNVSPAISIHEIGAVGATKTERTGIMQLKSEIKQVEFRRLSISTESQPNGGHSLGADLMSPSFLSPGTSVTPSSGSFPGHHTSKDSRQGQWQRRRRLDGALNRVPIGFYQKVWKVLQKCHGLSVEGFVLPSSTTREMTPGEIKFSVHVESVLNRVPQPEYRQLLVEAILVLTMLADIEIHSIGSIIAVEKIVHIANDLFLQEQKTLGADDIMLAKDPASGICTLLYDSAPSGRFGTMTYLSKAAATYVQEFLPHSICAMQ
In words: SEC; analytical Superdex 200 gel filtration of the PhK preparation several months after purification; fractions analysed by SDS-PAGE with Coomassie staining; subunits co-purified as the native complex.

In experiment [2] the target is T1, phosphorylase kinase α subunit. In words: cryo-EM structure; PhK holoenzyme alone, subunits co-purified as the native complex from muscle; 100 mM NaCl, 0.3 mM CaCl2, 5 mM MgCl2, 50 mM HEPES pH 8.2; single-particle reconstruction at 9.9 Å; PhKγt (PDB 2PHK) fitted as a rigid body.
The target of experiment [3] is B1. Described as above.
Experiment [4] addresses T2, phosphorylase kinase δ subunit (intrinsic calmodulin) (rabbit (endogenous in skeletal muscle), UniProt P62160 1-149).
T2 construct: phosphorylase kinase δ subunit, the intrinsic calmodulin; printed as 16.7 kDa, 148 amino acids; also called δ-calmodulin subunit; calmodulin-δ-subunit; source: purified from rabbit fast-twitch skeletal muscle as part of the PhK holoenzyme
The description is as above.

Data on two molecules can be found in publication PMC2639635, “The Structure of Phosphorylase Kinase Holoenzyme at 9.9 Å Resolution and Location of the Catalytic Subunit and the Substrate Glycogen Phosphorylase” (Structure(London, England:1993), 2009).

On to B1, for which the binding result in experiment [1] is listed as “binds”.

B2: phosphorylase kinase γ subunit (catalytic subunit) (natural protein)
chain: not shown
notes: phosphorylase kinase γ subunit, catalytic; also called γ catalytic subunit; γ kinase subunit; source: purified from rabbit fast-twitch skeletal muscle as part of the PhK holoenzyme
Regarding B2, the binding result in experiment [2], in experiment [3] and in experiment [4] was “binds” each time.
